Source: PMC3333781, “Systematic mapping of two component response regulators to gene targets in a model sulfate reducing bacterium”

What was measured:
Test in all cases: EMSA; 10 mM Tris-HCl pH 7.5, 1 mM DTT, 50 mM KCl, 5 mM MgCl2, 25% glycerol, 1 ug/ml poly dI-dC, 50-100 fmol biotinylated DNA, 25-30 C, 20 min
Settings in all cases: protein: recombinant; tags: C-terminal V5-6xHis; chain copies: 2; label: 5'-biotin top strand
[1] = target: T1, DVU3023 response regulator (Desulfovibrio vulgaris Hildenborough, UniProt Q726T3 1-474)
T1 sequence: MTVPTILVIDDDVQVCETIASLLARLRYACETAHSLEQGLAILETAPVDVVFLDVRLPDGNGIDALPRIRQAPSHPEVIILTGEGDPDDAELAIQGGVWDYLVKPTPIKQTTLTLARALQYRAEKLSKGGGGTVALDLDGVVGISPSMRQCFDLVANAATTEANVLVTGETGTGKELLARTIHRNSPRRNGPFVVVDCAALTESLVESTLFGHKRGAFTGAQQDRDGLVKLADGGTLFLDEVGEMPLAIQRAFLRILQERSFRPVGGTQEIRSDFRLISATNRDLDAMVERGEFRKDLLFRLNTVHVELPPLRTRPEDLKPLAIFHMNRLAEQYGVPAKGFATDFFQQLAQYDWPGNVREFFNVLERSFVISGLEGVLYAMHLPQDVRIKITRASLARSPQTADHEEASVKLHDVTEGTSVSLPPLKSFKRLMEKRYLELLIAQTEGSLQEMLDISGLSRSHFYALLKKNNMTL

[2] = target: T2, DVU0539 response regulator (Desulfovibrio vulgaris Hildenborough, UniProt Q72EN8 1-467)
T2 sequence: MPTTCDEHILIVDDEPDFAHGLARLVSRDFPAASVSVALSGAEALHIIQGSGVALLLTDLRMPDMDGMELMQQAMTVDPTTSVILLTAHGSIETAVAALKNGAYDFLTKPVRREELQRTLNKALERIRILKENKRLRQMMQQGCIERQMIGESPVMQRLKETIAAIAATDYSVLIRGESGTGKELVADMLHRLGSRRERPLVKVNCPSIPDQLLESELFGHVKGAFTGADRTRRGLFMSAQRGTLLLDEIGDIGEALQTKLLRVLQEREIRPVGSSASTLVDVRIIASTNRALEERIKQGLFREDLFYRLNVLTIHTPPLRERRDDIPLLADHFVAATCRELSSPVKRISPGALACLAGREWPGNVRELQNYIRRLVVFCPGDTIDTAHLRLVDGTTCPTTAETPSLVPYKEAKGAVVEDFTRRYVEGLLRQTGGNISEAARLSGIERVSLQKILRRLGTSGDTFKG

[3] = target: T3, DVU0946 response regulator (Desulfovibrio vulgaris Hildenborough, UniProt Q72DI3 1-476)
T3 sequence: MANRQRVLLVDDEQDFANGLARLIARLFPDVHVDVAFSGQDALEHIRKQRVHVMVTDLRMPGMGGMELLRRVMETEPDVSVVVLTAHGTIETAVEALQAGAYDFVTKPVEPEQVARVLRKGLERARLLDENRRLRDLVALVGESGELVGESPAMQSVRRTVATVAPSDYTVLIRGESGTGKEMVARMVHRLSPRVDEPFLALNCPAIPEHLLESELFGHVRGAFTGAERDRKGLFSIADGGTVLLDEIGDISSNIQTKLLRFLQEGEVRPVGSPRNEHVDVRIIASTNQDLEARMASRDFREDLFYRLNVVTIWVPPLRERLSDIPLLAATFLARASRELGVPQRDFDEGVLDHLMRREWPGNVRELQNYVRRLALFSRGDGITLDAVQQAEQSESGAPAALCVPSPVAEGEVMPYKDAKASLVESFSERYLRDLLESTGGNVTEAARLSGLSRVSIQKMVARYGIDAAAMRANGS

[4] = target: T4, DVU2934 response regulator (Desulfovibrio vulgaris Hildenborough, UniProt Q727C1 1-472)
T4 sequence: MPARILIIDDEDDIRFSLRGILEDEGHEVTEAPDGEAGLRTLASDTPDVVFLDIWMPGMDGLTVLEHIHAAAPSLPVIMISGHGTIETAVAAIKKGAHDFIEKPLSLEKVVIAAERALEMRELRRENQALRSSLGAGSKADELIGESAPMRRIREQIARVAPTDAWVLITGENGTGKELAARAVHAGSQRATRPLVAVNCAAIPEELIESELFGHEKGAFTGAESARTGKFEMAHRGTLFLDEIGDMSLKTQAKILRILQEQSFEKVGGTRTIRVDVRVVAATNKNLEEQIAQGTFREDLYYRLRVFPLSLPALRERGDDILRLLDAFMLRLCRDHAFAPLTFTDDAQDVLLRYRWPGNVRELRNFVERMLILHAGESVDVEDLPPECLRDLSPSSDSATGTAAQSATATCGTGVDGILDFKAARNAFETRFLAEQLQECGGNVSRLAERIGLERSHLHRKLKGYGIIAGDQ

[5] = target: T5, DVU2588 response regulator (Desulfovibrio vulgaris Hildenborough, UniProt Q728L5 1-226)
T5 sequence: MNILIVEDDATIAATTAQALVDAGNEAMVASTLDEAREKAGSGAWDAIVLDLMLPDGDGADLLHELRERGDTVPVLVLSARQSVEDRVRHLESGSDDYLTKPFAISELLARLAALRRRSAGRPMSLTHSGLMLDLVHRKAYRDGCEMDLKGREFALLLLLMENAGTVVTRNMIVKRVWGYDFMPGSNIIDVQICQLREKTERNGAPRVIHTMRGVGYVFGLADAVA

[6] = target: T6, DVU3305 response regulator (Desulfovibrio vulgaris Hildenborough, UniProt Q725X0 1-451)
T6 sequence: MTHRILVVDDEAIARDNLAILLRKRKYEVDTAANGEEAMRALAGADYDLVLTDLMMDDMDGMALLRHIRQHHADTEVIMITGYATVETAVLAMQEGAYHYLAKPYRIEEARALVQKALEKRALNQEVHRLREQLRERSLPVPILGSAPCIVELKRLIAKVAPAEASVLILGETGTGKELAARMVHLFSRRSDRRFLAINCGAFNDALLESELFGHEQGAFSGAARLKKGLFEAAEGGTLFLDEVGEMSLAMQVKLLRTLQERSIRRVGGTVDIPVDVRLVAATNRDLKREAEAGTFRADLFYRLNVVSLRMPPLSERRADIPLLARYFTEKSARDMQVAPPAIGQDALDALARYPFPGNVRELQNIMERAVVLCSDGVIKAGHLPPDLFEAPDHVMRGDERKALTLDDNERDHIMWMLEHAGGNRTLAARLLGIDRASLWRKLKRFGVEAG

[7] = target: T7, DVU3381 response regulator (Desulfovibrio vulgaris Hildenborough, UniProt Q725P3 1-459)
T7 sequence: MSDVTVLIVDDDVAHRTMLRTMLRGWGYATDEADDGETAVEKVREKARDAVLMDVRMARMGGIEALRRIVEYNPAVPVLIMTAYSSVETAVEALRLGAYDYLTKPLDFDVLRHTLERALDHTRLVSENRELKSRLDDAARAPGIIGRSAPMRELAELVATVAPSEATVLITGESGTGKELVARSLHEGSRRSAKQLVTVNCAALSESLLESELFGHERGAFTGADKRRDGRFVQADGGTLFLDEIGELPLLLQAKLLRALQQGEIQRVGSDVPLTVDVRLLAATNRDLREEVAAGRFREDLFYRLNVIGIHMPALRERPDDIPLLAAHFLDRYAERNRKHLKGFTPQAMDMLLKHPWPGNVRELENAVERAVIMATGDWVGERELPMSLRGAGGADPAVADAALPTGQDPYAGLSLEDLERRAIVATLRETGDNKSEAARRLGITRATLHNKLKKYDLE

[8] = target: T8, DVU1083 response regulator (PhoB) (Desulfovibrio vulgaris Hildenborough, UniProt Q72D47 1-229)
T8 sequence: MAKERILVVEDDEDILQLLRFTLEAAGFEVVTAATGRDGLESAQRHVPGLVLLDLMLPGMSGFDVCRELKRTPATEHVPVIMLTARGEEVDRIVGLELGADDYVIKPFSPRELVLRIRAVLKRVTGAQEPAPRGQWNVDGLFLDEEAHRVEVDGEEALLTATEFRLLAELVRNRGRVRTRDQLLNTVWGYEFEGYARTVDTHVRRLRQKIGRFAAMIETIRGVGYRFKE

[9] = target: T9, DVU0679 response regulator (Desulfovibrio vulgaris Hildenborough, UniProt Q72E99 1-488)
T9 sequence: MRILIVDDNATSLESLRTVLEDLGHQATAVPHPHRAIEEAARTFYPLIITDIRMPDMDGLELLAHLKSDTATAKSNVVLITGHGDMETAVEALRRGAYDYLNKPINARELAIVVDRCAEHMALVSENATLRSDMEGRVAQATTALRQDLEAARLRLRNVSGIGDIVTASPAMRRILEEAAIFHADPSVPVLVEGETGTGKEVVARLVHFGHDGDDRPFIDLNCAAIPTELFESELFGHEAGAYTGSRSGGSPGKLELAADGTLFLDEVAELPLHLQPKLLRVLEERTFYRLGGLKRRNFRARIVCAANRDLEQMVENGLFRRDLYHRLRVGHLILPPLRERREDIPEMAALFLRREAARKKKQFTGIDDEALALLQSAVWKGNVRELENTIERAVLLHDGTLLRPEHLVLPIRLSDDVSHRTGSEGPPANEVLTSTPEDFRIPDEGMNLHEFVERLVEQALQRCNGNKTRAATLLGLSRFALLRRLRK

B1: DVU3025 motif mut (dsDNA)
DNA 1: GCCACACGAACTGCGCTTTTCAATCAACGCTACCAC
DNA 2: GTGGTAGCGTTGATTGAAAAGCGCAGTTCGTGTGGC
**Q.** Does B1 bind [1]?
**A.** no binding

B2: DVU0943 second site mut (dsDNA)
DNA 1: AAAGGGCTCGACAACAGATGTTCCATGCAAA
DNA 2: TTTGCATGGAACATCTGTTGTCGAGCCCTTT
**Q.** Which results are given for B2?
**A.** binding result [2]: no binding; binding result [3]: no binding

B3: DVU2917 motif mut (dsDNA)
DNA 1: CTCGCCATGTGGACTGCAGAAGAGAGACTGTGCGTGG
DNA 2: CCACGCACAGTCTCTCTTCTGCAGTCCACATGGCGAG
**Q.** Does B3 bind [4]?
**A.** no binding

B4: DVU0943 DVU2588-motif mut (dsDNA)
DNA 1: CGTCCTGCACCTAATCATTCTTAAGTTAAAAGCTGT
DNA 2: ACAGCTTTTAACTTAAGAATGATTAGGTGCAGGACG
**Q.** Does B4 bind [5]?
**A.** no binding

B5: DVU3303 motif mut (dsDNA)
DNA 1: AAAGCCTCGTCATGGGATATCGTACACGAGGCCAC
DNA 2: GTGGCCTCGTGTACGATATCCCATGACGAGGCTTT
**Q.** Does B5 bind [6]?
**A.** no binding

B6: DVU3384 motif mut (dsDNA)
DNA 1: CACGAATGGAATGTATTTTTCTTGCACCCATACAC
DNA 2: GTGTATGGGTGCAAGAAAAATACATTCCATTCGTG
**Q.** Does B6 bind [7]?
**A.** no binding

B7: DVU1083 motif mut (dsDNA)
DNA 1: GTTGTAAAATGACAAACGGTTCTAGACGCTCTTCCA
DNA 2: TGGAAGAGCGTCTAGAACCGTTTGTCATTTTACAAC
**Q.** Does B7 bind [8]?
**A.** no binding

B8: DVU0677 motif mut (dsDNA)
DNA 1: AATCGCACGCGGAGAGTATTCGGATGTGCTTTTCCG
DNA 2: CGGAAAAGCACATCCGAATACTCTCCGCGTGCGATT
**Q.** Does B8 bind [9]?
**A.** no binding
